{
  "source": "paper PMC3498625",
  "molecular_target": "Wza from E. coli K30, purified DDM-solubilised octameric complex (E. coli K30)",
  "assay": "cryo-EM structure",
  "data": [
    {"substance": "Wza from E. coli K30, purified DDM-solubilised octameric complex (natural protein)", "values": [
      {"measurement": "stoichiometry N", "result": 8}
    ]}
  ]
}
